Measurements published in patent US20190338048A1.
pKd: −log10 of the molar value. Read-outs that look alike come from different tables or passages of the source. Values belong to the substance of their own block, whether it stands above or below them.

How the values were obtained:
[1] = biological target: Recombinant human IL-17A (human) (UniProt Q16552); assay: SPR
[2] = biological target: Recombinant human IL-17A (human) (UniProt Q16552); assay: SPR, ProteOn XPR36
[3] = biological target: Recombinant human IL-17A (human) (UniProt Q16552); assay: SPR as for KD
[4] = biological target: Pertuzumab kappa light chain V133D (L2), N-terminal HA tag; assay: LCCA, SPR of light chain tags
[5] = biological target: Pertuzumab kappa light chain V133D (L2), N-terminal HA tag; assay: LCCA, SPR of light chain tags; remark: listed apart in the source
[6] = biological target: Pertuzumab kappa light chain S176V (L2), N-terminal HA tag; assay: LCCA, SPR of light chain tags
[7] = biological target: Pertuzumab kappa light chain Q124E_Q160E_T180E (L2), N-terminal HA tag; assay: LCCA, SPR of light chain tags
[8] = biological target: Pertuzumab kappa light chain Q124E_Q160E_T180E (L2), N-terminal HA tag; assay: LCCA, SPR of light chain tags; remark: listed apart in the source
[9] = biological target: CAT-2200 lambda light chain S176K_Y178K (L1), N-terminal FLAG tag; assay: LCCA, SPR of light chain tags
[10] = biological target: CAT-2200 lambda light chain S176K_Y178L (L1), N-terminal FLAG tag; assay: LCCA, SPR of light chain tags
[11] = biological target: Pertuzumab kappa light chain Q124E_Q160E_T180E (L2), N-terminal HA tag; assay: LCCA, SPR of light chain tags; remark: listed apart in the source
[12] = biological target: Recombinant HER2 protein (HER2-ECD) (UniProt P04626); assay: SPR
[13] = biological target: Recombinant HER2 protein (HER2-ECD) (UniProt P04626); assay: SPR as for KD
[14] = biological target: Recombinant HER2 protein (HER2-ECD) (UniProt P04626); assay: SPR, ProteOn XPR36

pKd [1]: 9.57
Substance: CAT-2200 Fab heterodimer (H1L1) with H1 K145T_V177D_S188D and L1 S176K_Y178K

pKd [1]: 9.57
Substance: CAT-2200 Fab heterodimer (H1L1) with H1 K145T_V177D_S188D and L1 S176K_Y178R

Change in KD of H1L1 Fab vs wild type, -(log(KD design)-log(KD wt)) [1]: 0.03 | pKd [1]: 9.59
Substance: CAT-2200 Fab heterodimer (H1L1) with H1 L143K and L1 K129T_V133D

Change in KD of H1L1 Fab vs wild type [1]: -0.03 | pKd [1]: 9.54
Substance: CAT-2200 Fab heterodimer H1 L143E_K145T_Q179E / L1 E124Q_T131R

Change in KD of H1L1 Fab vs wild type [1]: 0.03 | pKd [1]: 9.59
Substance: CAT-2200 Fab heterodimer H1 L143K / L1 K129T_V133D

pKd [1]: 9.55
Substance: CAT-2200 Fab heterodimer H1L1 of design 10652-10755 (H1 L143E_K145T, L1 E124R)

Change in KD of H1L1 Fab vs wild type [1]: 0.08 | pKd [1]: 9.64
Substance: CAT-2200 Fab heterodimer H1L1 with H1 F174G and L1 T116F_S176F

Change in KD of H1L1 Fab vs wild type [1]: -0.1 | pKd [1]: 9.47
Substance: CAT-2200 Fab heterodimer H1L1 with H1 K145T_S188E and L1 Y178K

Change in KD of H1L1 Fab vs wild type [1]: 0 | pKd [1]: 9.57
Substance: CAT-2200 Fab heterodimer H1L1 with H1 K145T_V177D_S188D and L1 S176K_Y178K

Change in KD of H1L1 Fab vs wild type, -(log(KD design)-log(KD wt)) [2]: 0.01 | pKd [2]: 9.57
Substance: CAT-2200 Fab heterodimer H1L1 with H1 K145T_V177D_S188D and L1 S176K_Y178R

Change in KD of H1L1 Fab vs wild type, -(log(KD design)-log(KD wt)) [2]: 0.11 | pKd [2]: 9.68
Substance: CAT-2200 Fab heterodimer H1L1 with H1 K145T_V177T_S188E and L1 Y178K

Change in KD of H1L1 Fab vs wild type [1]: 0.1 | pKd [1]: 9.66
Substance: CAT-2200 Fab heterodimer H1L1 with H1 L143D_K145T and L1 E124Q_T131K

Change in KD of H1L1 Fab vs wild type [1]: -0.08 | pKd [1]: 9.48
Substance: CAT-2200 Fab heterodimer H1L1 with H1 L143D_K145T and L1 E124Q_T131K_V133S

Change in KD of H1L1 Fab vs wild type [1]: -0.1 | pKd [1]: 9.46
Substance: CAT-2200 Fab heterodimer H1L1 with H1 L143D_K145T and L1 E124Q_T131R

Change in KD of H1L1 Fab vs wild type, -(log(KD design)-log(KD wt)) [1]: -0.03 | pKd [1]: 9.54
Substance: CAT-2200 Fab heterodimer H1L1 with H1 L143E_K145T_Q179E and L1 E124Q_T131R

Change in KD of H1L1 Fab vs wild type, -(log(KD design)-log(KD wt)) [1]: 0.03 | pKd [1]: 9.59
Substance: CAT-2200 Fab heterodimer H1L1 with H1 S186R and L1 K129T_S180E

pKd [1]: 9.66
Substance: CAT-2200 Fab heterodimer H1L1 with H1 V177I_S188K and L1 V133L_S176D_Y178E (Kabat)

Change in KD of H1L1 Fab vs wild type, -(log(KD design)-log(KD wt)) [1]: 0
Substance: CAT-2200 Fab heterodimer H1L1 without pairing substitutions (H1L1 of Mab design sets 10771-11335 and 10771-11360)

Change in KD of H1L1 Fab vs wild type, -(log(KD design)-log(KD wt)) [1]: 0
Substance: CAT-2200 Fab heterodimer H1L1 without pairing substitutions (wild-type H1 and L1)

Change in KD of H1L1 Fab vs wild type, -(log(KD design)-log(KD wt)) [1]: -0.088 | pKd [1]: 9.59
Substance: CAT-2200 Fab heterodimer, H1 S186R / L1 K129T_S180E

Change in KD of H1L1 Fab vs wild type, -(log(KD design)-log(KD wt)) [1]: -0.24 | pKd [1]: 9.44
Substance: CAT-2200 Fab heterodimer, H1 S188K / L1 S176E_Y178E

Change in KD of H1L1 Fab vs wild type [1]: 0.08 | pKd [2]: 9.64
Substance: CAT-2200 Fab heterodimer, H1 V177I_S188K / L1 V133I_S176D_Y178E

Change in KD of H1L1 Fab vs wild type [1]: 0.08 | pKd [2]: 9.66
Substance: CAT-2200 Fab heterodimer, H1 V177I_S188K / L1 V133L_S176D_Y178E

Change in KD of H1L1 Fab vs wild type [1]: -0.22 | pKd [1]: 9.47
Substance: CAT-2200 Fab with H1 K145T_S188E and L1 Y178K

Change in KD of H1L1 Fab vs wild type, -(log(KD design)-log(KD wt)) [1]: -0.0041 log(KD) | pKd [1]: 9.68
Substance: CAT-2200 Fab, H1 A125R_S186R / L1 S122D_K129T_S180E

Change in KD of H1L1 Fab vs wild type [1]: -0.22 | pKd [1]: 9.47
Substance: CAT-2200 Fab, H1 K145T_S188E / L1 Y178K

Change in KD of H1L1 Fab vs wild type, -(log(KD design)-log(KD wt)) [3]: 0.11 log units | pKd [2]: 9.68
Substance: CAT-2200 Fab, H1 K145T_V177T_S188E / L1 Y178K

Change in KD of H1L1 Fab vs wild type, -(log(KD design)-log(KD wt)) [3]: -3.56 log units
Substance: CAT-2200 Fab, H1 L124E_V190D / L1 L135K_Y178F

Change in KD of H1L1 Fab vs wild type, -(log(KD design)-log(KD wt)) [3]: -3.56 log units
Substance: CAT-2200 Fab, H1 L124E_V190D / L1 V133I_L135K

Change in KD of H1L1 Fab vs wild type, -(log(KD design)-log(KD wt)) [3]: -3.56 log units
Substance: CAT-2200 Fab, H1 L124E_V190D / L1 V133I_L135K_Y178F

Change in KD of H1L1 Fab vs wild type, -(log(KD design)-log(KD wt)) [3]: 0.1 log units | pKd [2]: 9.66
Substance: CAT-2200 Fab, H1 L143D_K145T / L1 E124Q_T131K

Change in KD of H1L1 Fab vs wild type [1]: -0.22 | pKd [1]: 9.46
Substance: CAT-2200 Fab, H1 L143D_K145T / L1 E124Q_T131R

Change in KD of H1L1 Fab vs wild type, -(log(KD design)-log(KD wt)) [1]: -0.22 | pKd [1]: 9.47
Substance: CAT-2200 designed Fab heterodimer, H1 K145T_S188E / L1 Y178K

Change in KD of H1L1 Fab vs wild type, -(log(KD design)-log(KD wt)) [1]: -0.19 | pKd [1]: 9.48
Substance: CAT-2200 designed Fab heterodimer, H1 L143D_K145T / L1 E124Q_T131K_V133S

Change in KD of H1L1 Fab vs wild type, -(log(KD design)-log(KD wt)) [1]: -0.056 | pKd [1]: 9.62
Substance: CAT-2200 designed Fab heterodimer, H1 Q179K / L1 K129T_S180E

Change in KD of H1L1 Fab vs wild type, -(log(KD design)-log(KD wt)) [1]: -0.088 | pKd [1]: 9.59
Substance: CAT-2200 designed Fab heterodimer, H1 S186R / L1 K129T_S180E

Change in KD of H1L1 Fab vs wild type [1]: -0.0041 | pKd [1]: 9.68
Substance: CAT-2200 designed Fab, H1 A125R_S186R / L1 S122D_K129T_S180E

H2L2:H2L1 normalized median ratio [4]: 63% | H2L2:H2L1 normalized median scalar value ln(r1/f1) [4]: 0.54 | H2L2:H2L1 normalized median ratio [5]: 64% | H2L2:H2L1 normalized median scalar value ln(r1/f1) [5]: 0.58
Substance: Pertuzumab Fab heavy chain L143S_S186K_S188T (H2), ABD2-His6 tagged

H2L2:H2L1 normalized median ratio [6]: 40% | H2L2:H2L1 normalized median scalar value ln(r1/f1) [6]: -0.39
Substance: Pertuzumab Fab heavy chain S186I_S188W (H2), ABD2-His6 tagged

H2L2:H2L1 normalized median ratio [6]: 40% | H2L2:H2L1 normalized median scalar value ln(r1/f1) [6]: -0.39
Substance: Pertuzumab Fab heavy chain S186L_S188W (H2), ABD2-His6 tagged

H2L2:H2L1 normalized median ratio [7]: 89% | H2L2:H2L1 normalized median scalar value ln(r1/f1) [7]: 2.07 | H2L2:H2L1 normalized median ratio [8]: 97% | H2L2:H2L1 normalized median scalar value ln(r1/f1) [8]: 3.46 | H2L2:H2L1 normalized median ratio [9]: 4% | H2L2:H2L1 normalized median ratio [10]: 11% | H2L2:H2L1 normalized median ratio [11]: 96% | H2L2:H2L1 normalized median scalar value ln(r1/f1) [11]: 3.29
Substance: Pertuzumab Fab heavy chain S186R (H2), ABD2-His6 tagged

pKd [12]: 8.23
Substance: Pertuzumab Fab heterodimer, H2 L45P_L143E_K145T_Q179E / L2 P44F_Q124R_T178R

Change in KD of H2L2 Fab vs wild type, -(log(KD design)-log(KD wt)) [12]: 0.023 | pKd [12]: 8.13
Substance: Pertuzumab Fab heterodimer, H2 Q39E_L143E_K145T_Q179E / L2 Q38R_Q124R_T178R

Change in KD of H2L2 Fab vs wild type [12]: 0.065 | pKd [12]: 8.17
Substance: Pertuzumab Fab with H2 L45P_L124R_Q179K and L2 P44F_V133G_S176D_T180E

Change in KD of H2L2 Fab vs wild type [12]: 0.016 | pKd [12]: 8.12
Substance: Pertuzumab Fab with H2 Q39E_L124R_Q179K and L2 Q38R_V133G_S176D_T180E

pKd [12]: 8.23
Substance: Pertuzumab Fab, H2 L45P_L143R / L2 P44F_Q124E_V133D

Change in KD of H2L2 Fab vs wild type, -(log(KD design)-log(KD wt)) [13]: -0.01 log units | pKd [14]: 8.08
Substance: Pertuzumab Fab, H2 L124R / L2 V133G_S176D

Change in KD of H2L2 Fab vs wild type, -(log(KD design)-log(KD wt)) [13]: 0.04 log units | pKd [14]: 8.13
Substance: Pertuzumab Fab, H2 L143K / L2 Q124E_V133D

pKd [12]: 8.12
Substance: Pertuzumab Fab, H2 Q39E_L143R / L2 Q38R_Q124E_V133D

Change in KD of H2L2 Fab vs wild type, -(log(KD design)-log(KD wt)) [13]: 0 log units | pKd [14]: 8.10
Substance: Pertuzumab Fab, H2 S186K / L2 V133D

Change in KD of H2L2 Fab vs wild type, -(log(KD design)-log(KD wt)) [13]: -0.02 log units | pKd [14]: 8.07
Substance: Pertuzumab Fab, H2 S188K / L2 S131D_V133G_T178F

Change in KD of H2L2 Fab vs wild type, -(log(KD design)-log(KD wt)) [13]: 0 log units | pKd [14]: 8.09
Substance: Pertuzumab Fab, H2 S188K / L2 S176E_T178E
